{"source": "paper PMC10739154", "about": "“Reinvestigation of Disulfide-bonded Oligomeric Forms of the Unfolded Protein Response Transducer ATF6” (Cell Structure and Function, 2019)", "test_in_all_cases": "non-reducing SDS-PAGE with immunoblotting; ATF6α-TAP constructs of various lengths at the N-terminus in HCT116 DKO cells; lysates on non-reducing SDS-PAGE; blot with anti-Myc; shows disulfide-bonded forms", "key": {"[1]": {"target": "C467A mutant of ssATF6α(C)-TAP (human)"}, "[2]": {"target": "C467A mutant of ATF6α(Δ355)-TAP (human)"}, "[3]": {"target": "C618A mutant of ATF6α(Δ331)-TAP (human)"}, "[4]": {"target": "C618A mutant of ssATF6α(C)-TAP (human)"}, "[5]": {"target": "C618A mutant of ATF6α(Δ355)-TAP (human)"}}}
{"substance": "C467A mutant of ssATF6α(C)-TAP (domain or fragment)", "values": [{"measurement": "stoichiometry N", "setting": "[1]", "value": 2}]}
{"substance": "C467A mutant of ATF6α(Δ355)-TAP (domain or fragment)", "values": [{"measurement": "stoichiometry N", "setting": "[2]", "value": 2}]}
{"substance": "C618A mutant of ATF6α(Δ331)-TAP (domain or fragment)", "values": [{"measurement": "stoichiometry N", "setting": "[3]", "value": 2}]}
{"substance": "C618A mutant of ssATF6α(C)-TAP (domain or fragment)", "values": [{"measurement": "stoichiometry N", "setting": "[4]", "value": 2}]}
{"substance": "C618A mutant of ATF6α(Δ355)-TAP (domain or fragment)", "values": [{"measurement": "stoichiometry N", "setting": "[5]", "value": 2}]}
